The values that follow are results of earlier work, collected in publication PMC7288020.

For orientation: Kd means the equilibrium constant for the complex coming apart.

The target of this data set is Aβ1-40 Aβ 1-40 (Homo sapiens) (UniProt P05067).
Chain of UniProt P05067 (P05067 1-40): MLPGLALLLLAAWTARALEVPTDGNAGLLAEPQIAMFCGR

For ApoA1 (from UniProt P02647), the Kd was 6 nM.
